# Test results published in patent publication US20230265185A1 (NATIONAL RESEARCH COUNCIL OF CANADA, published 2023).
# T1: hCD22 fragment Bin 1, IVR1 (aa1-135), displayed on yeast cells (human, UniProt P20273 20-154)
# T1 construct: range 1-135; Range is counted on the mature ECD, not on the UniProt entry; on P20273 it would be 20-154 (my arithmetic); also called CD22 Sub-Domain 1; not shown: Aga2-HA display fusion partner of vector pPNL6; MYC tag
# T1 sequence (looked up): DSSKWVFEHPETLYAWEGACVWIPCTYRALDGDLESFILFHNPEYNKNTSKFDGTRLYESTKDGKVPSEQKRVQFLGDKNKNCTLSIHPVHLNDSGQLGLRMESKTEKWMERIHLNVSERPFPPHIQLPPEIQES
# T2: full-length hCD22-ECD (668aa) displayed on yeast cells (human, UniProt P20273 20-687)
# T2 construct: extracellular domain; Yeast surface display fusion Aga2-HA-(insert)-MYC; also called Bin 8; CD22-ECD Full lenght; not shown: Aga2-HA display fusion partner of vector pPNL6; MYC tag
# T2 sequence (looked up): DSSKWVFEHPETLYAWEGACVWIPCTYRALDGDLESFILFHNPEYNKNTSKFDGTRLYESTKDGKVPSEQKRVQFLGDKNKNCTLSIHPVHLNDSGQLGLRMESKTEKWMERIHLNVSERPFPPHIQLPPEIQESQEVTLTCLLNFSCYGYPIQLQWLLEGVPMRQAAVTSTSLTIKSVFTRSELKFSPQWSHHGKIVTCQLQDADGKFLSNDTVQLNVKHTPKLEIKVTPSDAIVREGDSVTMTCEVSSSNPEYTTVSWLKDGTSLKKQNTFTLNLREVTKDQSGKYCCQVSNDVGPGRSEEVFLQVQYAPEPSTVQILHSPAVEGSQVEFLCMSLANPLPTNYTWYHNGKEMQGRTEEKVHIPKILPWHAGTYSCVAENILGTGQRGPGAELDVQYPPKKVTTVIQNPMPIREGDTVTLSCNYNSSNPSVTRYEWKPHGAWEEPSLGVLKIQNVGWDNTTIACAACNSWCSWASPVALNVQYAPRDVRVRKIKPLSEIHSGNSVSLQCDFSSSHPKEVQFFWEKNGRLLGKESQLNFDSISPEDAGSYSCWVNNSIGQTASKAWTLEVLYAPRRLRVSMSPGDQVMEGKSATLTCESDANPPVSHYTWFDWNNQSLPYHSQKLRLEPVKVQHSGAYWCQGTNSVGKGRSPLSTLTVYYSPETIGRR
# T3: hCD22 fragment Bin 4, IVR4 (aa303-405), displayed on yeast cells (human, UniProt P20273 322-424)
# T3 construct: Range is counted on the mature ECD, not on the UniProt entry; on P20273 it would be 322-424 (my arithmetic); also called CD22 Sub-Domain 4; not shown: Aga2-HA display fusion partner of vector pPNL6; MYC tag
# T3 sequence (looked up): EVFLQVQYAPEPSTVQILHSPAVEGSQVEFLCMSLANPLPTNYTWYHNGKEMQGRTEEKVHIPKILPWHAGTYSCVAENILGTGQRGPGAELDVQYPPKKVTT
# B1: hCD221ug-80 (VHH)
# VHH: QVQLVESGGGLVQPGGSLRLSCTFSGFTLDYYVMVWFRQAPGKEREAVSCITSDGVTYYADSVKGRFTISRDNAKNTVYLQMNRVKPEDTAVYYCAVDKPFYDGGIQYTCPVDFDSWGQGAQVTVSS
# modifications: single biotin at the VHH C-terminal (biotinylation signal sequence)
# notes: llama VHH, expressed in E. coli TG1, IMAC purified, monomeric SEC fraction; also called VHH # 1; 2-hCD22 1ug-80
# B2: hCD22pas-32 (VHH)
# VHH: QVQLVESGGGLVQAGGSLRLSCAVSGRIFRSYVLGWFRQAPGKERELVARIGWSDTYYADSVKGRFTISRDNAKNTVDLQMNSLKPEDTAVYYCAANSPPYGPQRDEFGYWGQGTQVTVSS
# modifications: single biotin at the VHH C-terminal (biotinylation signal sequence)
# notes: llama VHH, expressed in E. coli TG1, IMAC purified, monomeric SEC fraction; also called VHH # 15; 6-hCD22 pas-32
# B3: hCD221ug-13 (VHH)
# VHH: QVQLVESGGGLVQAGDSLRLSCAGSGGSFSSVTMAWFRQAPGKDREFVAAITWSSPSTYYADSVKGRFTISRDNAKNTVYLQMNSLKPEDTAVYYCAGGRTGRGTSADTDEYNYWGQGTQVTVSS
# modifications: single biotin at the VHH C-terminal (biotinylation signal sequence)
# notes: llama VHH, expressed in E. coli TG1, IMAC purified, monomeric SEC fraction; also called VHH # 21; 1-hCD22 1ug-13
# What was measured:
# [1] = target: T1, hCD22 fragment Bin 1, IVR1 (aa1-135), …; assay: yeast display cell ELISA, biotinylated sdAb 250 nM
# Method: (§1) The YSD vector (pPNL6) was from The Pacific Northwest National Laboratory, USA. […] The HRP activity was assayed with substrate TMB (tetramethyl benzidine) according to the manufacture’s conditions and read at OD₄₅₀.
# (§2) The wells that gave rise to OD₄₅₀ above 0.25 were highlighted, indicating significant antibody-antigen interactions. All the sdAbs tested except hCd22_1ug-14 were assigned to specific Bin(s).
# [2] = target: T1, hCD22 fragment Bin 1, IVR1 (aa1-135), …; assay: yeast display cell ELISA, native cells
# Method: as §1
# (§3) Table 7 depicts the assessment of the nature of the epitopes of CD22 sdAbs to determine if the epitopes for the sdAbs are continuous (linear) or non-continuous (conformational). […] The binding of each sdAb to native and denatured CD22 fragments was measured as OD₄₅₀, and the ratio of the binding to denatured CD22 to non-denatured CD22 was calculated, with the ratio ≥ 0.5 indicative linear (L), and the ratio < 0.5 indicative of conformational (C) epitopes.
# [3] = target: T1, hCD22 fragment Bin 1, IVR1 (aa1-135), …; assay: yeast display cell ELISA, OD on denatured over non-denatured CD22 fragment
# Method: as §1, §3
# [4] = target: T1, hCD22 fragment Bin 1, IVR1 (aa1-135), …; assay: yeast display cell ELISA, heat denatured cells (80 C, 30 min)
# Method: as §1, §3
# [5] = target: T2, full-length hCD22-ECD (668aa) displayed …; assay: yeast display cell ELISA, OD on denatured over non-denatured CD22 ECD
# Method: as §1, §3
# [6] = target: T2, full-length hCD22-ECD (668aa) displayed …; assay: yeast display cell ELISA, native cells
# Method: as §1, §3
# [7] = target: T3, hCD22 fragment Bin 4, IVR4 (aa303-405), …; assay: yeast display cell ELISA, biotinylated sdAb 250 nM
# Method: as §1, §2
# [8] = target: T3, hCD22 fragment Bin 4, IVR4 (aa303-405), …; assay: yeast display cell ELISA, native cells
# Method: as §1, §3
# [9] = target: T3, hCD22 fragment Bin 4, IVR4 (aa303-405), …; assay: yeast display cell ELISA, OD on denatured over non-denatured CD22 fragment
# Method: as §1, §3
binder,measurement,setting,value
B1,OD450,[1],2.03 OD450
same,Non denatured CD22 OD,[2],2.32 OD450
same,CD22 Ratio (D/ND),[3],0.762
same,Heat Inactivated CD22 OD,[4],1.77 OD450
B2,CD22 Ratio (D/ND),[5],0
same,Non denatured CD22 OD,[6],0.789 OD450
B3,OD450,[7],0.752 OD450
same,Non denatured CD22 OD,[8],1.23 OD450
same,CD22 Ratio (D/ND),[9],0.557
